Results as given in publication PMC10592472 (Cell reports, 2023).
Read-outs that look alike come from different tables or passages of the source. Values belong to the molecule of their own block, whether it stands above or below them.

What was measured:
[1] = target: LFA1 (αLβ2) (mouse (endogenous in primary T cells)) (UniProt P24063); assay: single-molecule imaging
[2] = target: LFA1 (αLβ2) (mouse (endogenous in primary T cells)) (UniProt P24063); assay: single-molecule imaging; remark: listed apart in the source
[3] = target: LFA1 (αLβ2) (mouse (endogenous in primary T cells), UniProt P24063 24-1162; P11835 24-771); assay: flow cytometry on cells
LFA1 (αLβ2), sequence (P24063 24-1162, chain 1 of 2): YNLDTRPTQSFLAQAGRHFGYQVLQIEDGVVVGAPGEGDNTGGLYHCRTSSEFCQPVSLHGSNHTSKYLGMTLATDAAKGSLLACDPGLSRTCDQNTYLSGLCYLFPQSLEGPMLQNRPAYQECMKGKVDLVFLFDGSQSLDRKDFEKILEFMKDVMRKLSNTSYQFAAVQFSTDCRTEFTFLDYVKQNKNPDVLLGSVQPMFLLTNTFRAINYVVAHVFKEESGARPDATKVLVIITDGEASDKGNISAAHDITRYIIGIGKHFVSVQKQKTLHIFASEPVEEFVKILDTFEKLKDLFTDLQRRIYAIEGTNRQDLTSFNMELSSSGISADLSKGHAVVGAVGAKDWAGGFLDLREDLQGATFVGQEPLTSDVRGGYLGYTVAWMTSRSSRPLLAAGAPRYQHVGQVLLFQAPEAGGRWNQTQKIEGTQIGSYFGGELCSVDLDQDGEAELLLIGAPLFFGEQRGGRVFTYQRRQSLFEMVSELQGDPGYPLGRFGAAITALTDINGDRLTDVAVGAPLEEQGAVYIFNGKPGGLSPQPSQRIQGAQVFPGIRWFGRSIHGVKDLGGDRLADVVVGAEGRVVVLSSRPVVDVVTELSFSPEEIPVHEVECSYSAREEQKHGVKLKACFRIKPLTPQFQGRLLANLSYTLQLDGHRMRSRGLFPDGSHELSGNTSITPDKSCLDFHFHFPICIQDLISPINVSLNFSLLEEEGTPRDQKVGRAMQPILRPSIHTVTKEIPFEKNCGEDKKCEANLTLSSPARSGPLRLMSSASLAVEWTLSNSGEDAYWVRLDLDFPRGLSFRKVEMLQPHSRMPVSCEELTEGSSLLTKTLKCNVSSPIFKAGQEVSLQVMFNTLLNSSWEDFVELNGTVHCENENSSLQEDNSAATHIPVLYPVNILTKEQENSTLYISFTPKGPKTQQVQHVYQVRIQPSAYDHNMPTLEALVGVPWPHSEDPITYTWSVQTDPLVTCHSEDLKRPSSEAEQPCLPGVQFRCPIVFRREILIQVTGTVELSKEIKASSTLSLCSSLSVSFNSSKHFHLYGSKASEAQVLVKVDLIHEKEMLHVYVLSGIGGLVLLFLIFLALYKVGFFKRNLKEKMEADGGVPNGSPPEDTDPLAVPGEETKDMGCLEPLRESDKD
LFA1 (αLβ2), sequence (P11835 24-771, chain 2 of 2): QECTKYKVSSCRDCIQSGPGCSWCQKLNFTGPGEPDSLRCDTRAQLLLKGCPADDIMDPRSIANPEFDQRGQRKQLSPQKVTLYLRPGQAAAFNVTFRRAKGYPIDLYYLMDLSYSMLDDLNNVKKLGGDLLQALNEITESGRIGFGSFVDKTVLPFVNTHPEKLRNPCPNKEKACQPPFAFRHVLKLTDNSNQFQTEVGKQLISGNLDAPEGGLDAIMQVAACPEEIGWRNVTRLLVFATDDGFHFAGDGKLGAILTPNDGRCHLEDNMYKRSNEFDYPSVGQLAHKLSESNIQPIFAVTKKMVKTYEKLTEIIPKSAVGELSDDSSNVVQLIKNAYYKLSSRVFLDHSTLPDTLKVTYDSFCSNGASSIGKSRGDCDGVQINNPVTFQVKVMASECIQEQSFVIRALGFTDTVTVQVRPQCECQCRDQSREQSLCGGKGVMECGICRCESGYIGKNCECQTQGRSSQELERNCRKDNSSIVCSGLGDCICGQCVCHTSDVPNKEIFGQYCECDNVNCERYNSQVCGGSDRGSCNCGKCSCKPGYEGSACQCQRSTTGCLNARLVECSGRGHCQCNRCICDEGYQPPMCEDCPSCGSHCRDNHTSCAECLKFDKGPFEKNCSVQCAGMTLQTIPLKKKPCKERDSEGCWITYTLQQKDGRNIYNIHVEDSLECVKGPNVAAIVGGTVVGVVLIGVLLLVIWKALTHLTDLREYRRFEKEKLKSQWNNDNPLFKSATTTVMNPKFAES

LFA1 (αLβ2) (mouse (endogenous in primary T cells)), sequence (P24063 24-1162, chain 1 of 2): as the sequence (P24063 24-1162, chain 1 of 2) above
LFA1 (αLβ2) (mouse (endogenous in primary T cells)), sequence (P11835 24-771, chain 2 of 2, further chain): as the sequence (P11835 24-771, chain 2 of 2) above

koff [1]: 0.398 s⁻¹
koff [2]: 0.03 s⁻¹
Molecule: mouse ICAM1-GPI (from UniProt P13597 28-537) (ligand)

fold binding against WT T cells (Rasa3/Sipa1-KO T cells, Mn2+) [3]: 2 fold
B1: Mouse ICAM1-Fc (Fc fusion, UniProt P13597 28-485, looked up)
chain: QVSIHPREAFLPQGGSVQVNCSSSCKEDLSLGLETQWLKDELESGPNWKLFELSEIGEDSSPLCFENCGTVQSSASATITVYSFPESVELRPLPAWQQVGKDLTLRCHVDGGAPRTQLSAVLLRGEEILSRQPVGGHPKDPKEITFTVLASRGDHGANFSCRTELDLRPQGLALFSNVSEARSLRTFDLPATIPKLDTPDLLEVGTQQKLFCSLEGLFPASEARIYLELGGQMPTQESTNSSDSVSATALVEVTEEFDRTLPLRCVLELADQILETQRTLTVYNFSAPVLTLSQLEVSEGSQVTVKCEAHSGSKVVLLSGVEPRPPTPQVQFTLNASSEDHKRSFFCSAALEVAGKFLFKNQTLELHVLYGPRLDETDCLGNWTWQEGSQQTLKCQAWGNPSPKMTCRRKADGALLPIGVVKSVKQEMNGTYVCHAFSSHGNVTRNVYLTVLYHSQNN
